Data published in publication PMC4362373.

Target: recombinant human IL-1RI Fc chimera (human) (UniProt P14778)
Assay: ELISA

Chain of UniProt P14778 (P14778 18-336, change not shown): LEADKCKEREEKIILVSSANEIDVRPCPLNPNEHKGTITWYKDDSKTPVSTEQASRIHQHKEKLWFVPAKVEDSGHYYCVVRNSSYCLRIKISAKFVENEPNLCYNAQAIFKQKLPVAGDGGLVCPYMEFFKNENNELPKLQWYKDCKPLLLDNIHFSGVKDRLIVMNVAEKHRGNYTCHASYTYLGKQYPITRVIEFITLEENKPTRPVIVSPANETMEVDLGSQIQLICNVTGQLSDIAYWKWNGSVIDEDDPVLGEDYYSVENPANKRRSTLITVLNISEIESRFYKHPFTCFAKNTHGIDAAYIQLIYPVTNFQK

- fold reduction of affinity against wild-type IL-1β: 3500 fold
Substance: hIL-1b(D145K) (ligand)
